Test [1] has as its target T1, GST fusion protein containing human Mpl MG8 (Gln26 to Pro217) (human, UniProt P40238 26-217).
T1 construct: As MG1; not shown: glutathione-S-transferase of vector pGEX-4T-3 (Amersham Biosciences)
T1 sequence: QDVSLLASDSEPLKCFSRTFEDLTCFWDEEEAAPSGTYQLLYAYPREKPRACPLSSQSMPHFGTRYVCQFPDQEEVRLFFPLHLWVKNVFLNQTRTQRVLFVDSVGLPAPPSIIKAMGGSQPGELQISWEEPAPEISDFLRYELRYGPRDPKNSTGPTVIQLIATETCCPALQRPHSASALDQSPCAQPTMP
As to the kind of experiment: Western blotting of GST fusion protein. How it is done: (§1) Since the anti-human Mpl antibody VB22B can be used for Western blotting, a GST-fusion protein containing a partial sequence of human Mpl was constructed for VB22B epitope analysis. MG1 (Gln26 to Trp491) and MG2 (Gln26 to Leu274) regions were each amplified by PCR, and cloned into pGEX-4T-3 (Amersham Biosciences) to be expressed as GST fusion proteins. The resulting plasmid DNAs were transformed into DH5α to give transformants. A final concentration of 1 mM IPTG was added to the transformants in their logarithmic growth phase to induce the expression of GST fusion proteins. The bacterial cells were harvested after two hours of incubation. The cells were lysed by sonication. The lysates were centrifuged in XL-80 Ultracentrifuge (Beckman, Rotor 70.1Ti) at 35,000 rpm for 30 min. The culture supernatants were removed, and then the fusion proteins were purified using GST Purification Modules (Amersham Biosciences). The samples were separated by 10%-SDS-PAGE, and then transferred onto a PVDF membrane. The membrane was analyzed by the murine antibody VB22B in Western Btotting.
(§2) Then, GST fusion proteins containing the respective regions of human Mpl: MG3 (Gln26 to Ala189), MG4 (Gln26 to Pro106), MG5 (Gln26 to Glu259), and MG6 (Gln26 to Gly245) were prepared and analyzed by Western blotting using the same procedure described above. […] In addition, GST was fused with MG7 (Gln26 to Ala231) and MG8 (Gln26 to Pro217) to prepare GST fusion proteins.

For test [2], the target named is T2, GST fusion protein containing human Mpl MG3 (Gln26 to Ala189) (human, UniProt P40238 26-189).
T2 construct: As MG1; not shown: glutathione-S-transferase of vector pGEX-4T-3 (Amersham Biosciences)
T2 sequence: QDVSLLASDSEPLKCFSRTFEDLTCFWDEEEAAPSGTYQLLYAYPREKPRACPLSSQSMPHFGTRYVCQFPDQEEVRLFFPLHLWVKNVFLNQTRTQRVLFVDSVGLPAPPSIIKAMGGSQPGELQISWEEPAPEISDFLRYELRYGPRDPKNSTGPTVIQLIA
Description: Western blotting of GST fusion protein. How it is done:
as §1, §2
Background: In western blotting, separated proteins are transferred to a membrane and probed.

Test [3] concerns the target T3, GST fusion protein containing human Mpl MG4 (Gln26 to Pro106) (human, UniProt P40238 26-106).
T3 construct: As MG1; not shown: glutathione-S-transferase of vector pGEX-4T-3 (Amersham Biosciences)
T3 sequence: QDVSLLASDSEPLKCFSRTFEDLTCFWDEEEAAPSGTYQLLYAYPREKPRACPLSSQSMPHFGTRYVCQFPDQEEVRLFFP
Description: Western blotting of GST fusion protein. How it is done:
as §1, §2

In test [4] the target is T4, MG10 (Gln213 to Ala231)-GST fusion protein (human, also: fused with GST).
T4 construct: As MG1; also called MG10-GST fusion protein; GST fusion protein containing MG10; not shown: glutathione-S-transferase of vector pGEX-4T-3 (Amersham Biosciences)
T4 chain: QPTMPWQDGPKQTSPSREA
Description: SPR, Biacore 3000, MG10-GST immobilized on CM5, Bivalent analyte model (constants as for the monovalent antibody), triplicate. As for the experimental part: The Sensor Chip CM5 (Biacore) was placed in Biacore 3000 (Biacore), and MG10-GST fusion protein was immobilized onto the chip by amine-coupling methods. HBS-EP Buffer (Biacore) was used as the running buffer, and the flow rate was 20 μL/min. 5.5 to 175.0 nM of VB22B IgG solution was prepared using HBS-EP Buffer, and injected over each of the chip surfaces for 2 min to obtain the binding region at the respective concentrations. Then, dissociation region for the 2 minutes was measured. VB22B IgG bound to the MG10-GST fusion protein on the sensor chip was removed by injecting 20 mM HCl over the sensor chip for 1 min, and the chip was recovered. Similarly, 4.7 to 150.1 nM of VB22B sc(Fv)2, 5.3 to 168.9 nM of hVB22B q-wz5 sc(Fv)2, and 4.9 to 156.8 nM of hVB22B u2-wz4 sc(Fv)2 were prepared and injected over the chip surfaces onto which MG10-GST fusion protein was immobilized, and the measurement was carried out.
All the antibodies used were bivalent antibodies, and thus the sensorgrams at each concentration were obtained in the presence of both monovalent and bivalent bindings. In this context, the reaction rate constant was determined as that for the monovalent antibody by analysis using the Bivalent analyte model of BIAevaluation ver.3.1 software (Biacore). The above analysis was carried out in triplicates for each antibody. The binding rate constant (ka), dissociation rate constant (kd), and dissociation constant (KD) were determined as those for the monovalent antibody by the procedure described above. The constants are indicated below in Table 1.
A general note: In SPR one partner is held on a chip, and binding of the other changes the refractive index at the surface.

No end group written: not given here.

B1: anti-human Mpl antibody VB22B IgG (antibody, V domains shown)
VH: QVQLQQSGPELVKPGASVKISCKASGYAFTNSWMNWVKQRPGKGLEWIGRIYPGDGETIYNGKFRVKATLTADKSSSTAYMDISSLTSEDSAVYFCARGYDDYSFAYWGQGTLVTVSA
VL: DIVMTQAAPSIPVTPGESVSISCRSSKSLLHSNGNTYLYWFLQRPGQSPQLLIYRMSNLASGVPDRFSGSGSGTAFTLRISRVEAEDVGVYYCMQHIEYPFTFGSGTKLEIK
notes: also called murine antibody VB22B
For the molecule B1, in test [1], the binding result is listed as “no binding”. Further, the binding result in test [2] is reported as “no binding”. In addition, the binding result in test [3] is recorded as “no binding”. Also, in test [4], the Kd worked out at 11.5 nM; the koff – broadly, the first-order rate constant of dissociation – was found to be 0.0011 s⁻¹; the on-rate constant (kon) (commonly a measure of how fast the partners come together) amounted to 96000 M⁻¹ s⁻¹.

The values are drawn from patent US20060222643A1 (Chugai, published 2006).
